Measured values published in US10619138B2, “Herbicide-resistant hydroxyphenylpyruvate dioxygenases” (BASF SE, priority 2013, dated 2020).

Substrate: O=C(O)C(=O)Cc1ccc(O)cc1
Test: purified protein, by the assay type
Details: other: pH 7.0, apparent, substrate inhibition model, 20.0 °C

B1: Arabidopsis thaliana HPPD, wild type, SEQ ID NO: 42 (Arabidopsis thaliana) (protein)
chain: MGHQNAAVSENQNHDDGAASSPGFKLVGFSKFVRKNPKSDKFKVKRFHHIEFWCGDATNVARRFSWGLGMRFSAKSDLSTGNMVHASYLLTSGDLRFLFTAPYSPSLSAGEIKPTTTASIPSFDHGSCRSFFSSHGLGVRAVAIEVEDAESAFSISVANGAIPSSPPIVLNEAVTIAEVKLYGDVVLRYVSYKAEDTEKSEFLPGFERVEDASSFPLDYGIRRLDHAVGNVPELGPALTYVAGFTGFHQFAEFTADDVGTAESGLNSAVLASNDEMVLLPINEPVHGTKRKSQIQTYLEHNEGAGLQHLALMSEDIFRTLREMRKRSSIGGFDFMPSPPPTYYQNLKKRVGDVLSDDQIKECEELGILVDRDDQGTLLQIFTKPLGDRPTIFIEIIQRVGCMMKDEEGKAYQSGGCGGFGKGNFSELFKSIEEYEKTLEAKQLVG
Q: How did the Km turn out when B1 was run?
A: 13 µM

Q: What about the kcat of the same protein?
A: 12.9 s⁻¹

Q: And the kcat/Km?
A: 1e+06 M⁻¹ s⁻¹
